Laboratory results published in paper PMC5932363, “Proteinase 3 Interferes With C1q-Mediated Clearance of Apoptotic Cells” (Frontiers in Immunology, 2018).

Target: T1, C1q (complement protein C1q, intact) (human, UniProt P02745 23-245; P02746 28-253; P02747 29-245)
T1 construct: complement C1q subunit A, human; C1q purified from human serum; a hexamer of heterotrimers; complement C1q subunit B, human; complement C1q subunit C, human; also called intact C1q; whole C1q; source: purified from human serum; copies: 6 + 6 + 6
Test: SPR; BIAcore 3000; PR3 immobilised on a CM5 chip by amine coupling; C1q, gC1q or cC1q as soluble analytes; 50 mM Tris, 150 mM NaCl, 2 mM Ca2+, 0.005% surfactant P20, pH 7.4; flow 20 µl/min; global fit to a 1:1 Langmuir model; apparent KD from koff/kon
Details: both partners purified

T1 sequence (P02745 23-245, chain 1 of 3): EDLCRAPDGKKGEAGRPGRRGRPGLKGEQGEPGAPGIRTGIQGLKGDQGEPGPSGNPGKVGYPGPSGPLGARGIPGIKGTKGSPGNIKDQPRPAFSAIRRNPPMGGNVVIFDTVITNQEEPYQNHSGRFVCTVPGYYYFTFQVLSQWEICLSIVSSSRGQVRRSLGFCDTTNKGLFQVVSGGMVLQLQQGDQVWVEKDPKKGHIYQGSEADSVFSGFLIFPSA
T1 sequence (P02746 28-253, chain 2 of 3): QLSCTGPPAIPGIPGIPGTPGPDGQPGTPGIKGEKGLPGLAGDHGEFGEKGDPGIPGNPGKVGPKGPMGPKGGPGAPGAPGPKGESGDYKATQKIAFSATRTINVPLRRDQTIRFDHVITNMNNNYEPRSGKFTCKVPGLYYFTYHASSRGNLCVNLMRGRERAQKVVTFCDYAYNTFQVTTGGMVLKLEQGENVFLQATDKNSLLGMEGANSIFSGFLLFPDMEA
T1 sequence (P02747 29-245, chain 3 of 3): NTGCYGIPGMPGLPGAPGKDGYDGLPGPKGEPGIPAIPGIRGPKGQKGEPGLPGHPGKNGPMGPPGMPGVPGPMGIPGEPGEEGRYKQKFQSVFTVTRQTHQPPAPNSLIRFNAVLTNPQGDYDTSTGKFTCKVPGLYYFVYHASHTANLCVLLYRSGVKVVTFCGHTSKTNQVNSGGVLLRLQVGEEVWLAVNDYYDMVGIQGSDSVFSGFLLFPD

B1: Proteinase 3 (PR3), purified (enzyme, UniProt P24158 28-248, looked up)
chain: IVGGHEAQPHSRPYMASLQMRGNPGSHFCGGTLIHPSFVLTAAHCLRDIPQRLVNVVLGAHNVRTQEPTQQHFSVAQVFLNNYDAENKLNDVLLIQLSSPANLSASVATVQLPQQDQPVPHGTQCLAMGWGRVGAHDPPAQVLQELNVTVVTFFCRPHNICTFVPRRKAGICFGDSGGPLICDGIIQGIDSFVIWGCATRLFPDFFTRVALYVDWIRSTLR
notes: proteinase 3 (myeloblastin), neutrophil-derived serine protease; also called purified PR3; immobilized PR3; source: bought: Athens Research and Technology
Kd: 190 nM
koff: 0.00151 s⁻¹
kon: 7800 M⁻¹ s⁻¹
